# From the RNAGym collection of RNA variant scans (doi:10.7554/elife.90254)
# B1: LINE1-mini (parent)
# chain: GGCAGAGCUCAACACAGCGUGGCAAAGUGGCUGUGGCUAGACUGCC
# Variants of: B1
# Experiment: self-cleavage, relative activity (ratio to wild type); higher = more cleavage; in vitro, sequencing; the parent is a self-cleaving ribozyme
row,Variant,self-cleavage
1,GGCAGAGCUCAACACAGCGUGGCAAAGUGGUUGUGGCUAGACUGCC [C31U],0.26
2,GGCAGAGCUCAACACAGCGUGGCAAAGUGGGUGUGGCUAGACUGCC [C31G],0.1
3,GGCAGAGCUCAACACAGCGUGGCAAAGUGGGUGUGGCUAGACUCCC [C31G G44C],0.05
4,GGCAGAGCUCAACACAGCGUGGCAAAGUGGGUGUGGCUAGACUUCC [C31G G44U],0.05
5,GGCAGAGCUCAACACAGCGUGGCAAAGUGGGUGUGGCUAGACUACC [C31G G44A],0.05
6,GGCAGAGCUCAACACAGCGUGGCAAAGUGGGUGUGGCUAGACGGCC [C31G U43G],0.05
7,GGCAGAGCUCAACACAGCGUGGCAAAGUGGGUGUGGCUAGACCGCC [C31G U43C],0.05
8,GGCAGAGCUCAACACAGCGUGGCAAAGUGGGUGUGGCUAGACAGCC [C31G U43A],0.13
9,GGCAGAGCUCAACACAGCGUGGCAAAGUGGGGGUGGCUAGACUGCC [C31G U32G],0.08
10,GGCAGAGCUCAACACAGCGUGGCAAAGUGGGAGUGGCUAGACUGCC [C31G U32A],0.05
11,GGCAGAGCUCAACACAGCGUGGCAAAGUGGGCGUGGCUAGACUGCC [C31G U32C],0.08
12,GGCAGAGCUCAACACAGCGUGGCAAAGUGGAUGUAGCUAGACUGCC [C31A G35A],0.04
13,GGCAGAGCUCAACACAGCGUGGCAAAGUGGAUGUCGCUAGACUGCC [C31A G35C],0.04
14,GGCAGAGCUCAACACAGCGUGGCAAAGUGGAUGUUGCUAGACUGCC [C31A G35U],0.06
15,GGCAGAGCUCAACACAGCGUGGCAAAGUGGUUGUGGCUAGACUGAC [C31U C45A],0.13
16,GGCAGAGCUCAACACAGCGUGGCAAAGUGGUUGUGGCUAGACUGGC [C31U C45G],0.1
17,GGCAGAGCUCAACACAGCGUGGCAAAGUGGUUGUGGCUAGACUGUC [C31U C45U],0.18
18,GGCAGAGCUCAACACAGCGUGGCAAAGUGGGUGUGGCUAGACUGUC [C31G C45U],0.08
19,GGCAGAGCUCAACACAGCGUGGCAAAGUGGGUGUGGCUAGACUGGC [C31G C45G],0.04

row,Variant,self-cleavage
1,GGCAGAGCUCAACACAGCGUGGCAAAGUGGGUGUGGCUAGACUGAC [C31G C45A],0.04
2,GGCAGAGCUCAACACAGCGUGGCAAAGUGGUUGUGGAUAGACUGCC [C31U C37A],0.09
3,GGCAGAGCUCAACACAGCGUGGCAAAGUGGUUGUGGUUAGACUGCC [C31U C37U],0.07
4,GGCAGAGCUCAACACAGCGUGGCAAAGUGGUUGUGGGUAGACUGCC [C31U C37G],0.05
5,GGCAGAGCUCAACACAGCGUGGCAAAGUGGGUAUGGCUAGACUGCC [C31G G33A],0.05
6,GGCAGAGCUCAACACAGCGUGGCAAAGUGGGUCUGGCUAGACUGCC [C31G G33C],0.03
7,GGCAGAGCUCAACACAGCGUGGCAAAGUGGGUUUGGCUAGACUGCC [C31G G33U],0.06
8,GGCAGAGCUCAACACAGCGUGGCAAAGUGGGUGUGGCUAGACUGCU [C31G C46U],0.07
9,GGCAGAGCUCAACACAGCGUGGCAAAGUGGGUGUGGCUAGACUGCG [C31G C46G],0.04
10,GGCAGAGCUCAACACAGCGUGGCAAAGUGGGUGUGGCUAGACUGCA [C31G C46A],0.06
11,GGCAGAGCUCAACACAGCGUGGCAAAGUGGAUGUGGCUAGACUGCG [C31A C46G],0.11
12,GGCAGAGCUCAACACAGCGUGGCAAAGUGGAUGUGGCUAGACUGCU [C31A C46U],0.11
13,GGCAGAGCUCAACACAGCGUGGCAAAGUGGAUGUGGCUAGACUGCA [C31A C46A],0.13
14,GGCAGAGCUCAACACAGCGUGGCAAAGUGGAUGUGGCUAGAGUGCC [C31A C42G],0.05
15,GGCAGAGCUCAACACAGCGUGGCAAAGUGGAUGUGGCUAGAAUGCC [C31A C42A],0.04
16,GGCAGAGCUCAACACAGCGUGGCAAAGUGGAUGUGGCUAGAUUGCC [C31A C42U],0.05
17,GGCAGAGCUCAACACAGCGUGGCAAAGUGGAUGUGGCGAGACUGCC [C31A U38G],0.03
18,GGCAGAGCUCAACACAGCGUGGCAAAGUGGAUGUGGCAAGACUGCC [C31A U38A],0.12
19,GGCAGAGCUCAACACAGCGUGGCAAAGUGGAUGUGGCCAGACUGCC [C31A U38C],0.16

row,Variant,self-cleavage
1,GGCAGAGCUCAACACAGCGUGGCAAAGUGGGUGUGGGUAGACUGCC [C31G C37G],0.04
2,GGCAGAGCUCAACACAGCGUGGCAAAGUGGGUGUGGUUAGACUGCC [C31G C37U],0.05
3,GGCAGAGCUCAACACAGCGUGGCAAAGUGGGUGUGGAUAGACUGCC [C31G C37A],0.09
4,GGCAGAGCUCAACACAGCGUGGCAAAGUGGAUGUGGCUAGACUGAC [C31A C45A],0.05
5,GGCAGAGCUCAACACAGCGUGGCAAAGUGGAUGUGGCUAGACUGGC [C31A C45G],0.06
6,GGCAGAGCUCAACACAGCGUGGCAAAGUGGAUGUGGCUAGACUGUC [C31A C45U],0.13
7,GGCAGAGCUCAACACAGCGUGGCAAAGUGGGUGUGGCUACACUGCC [C31G G40C],0.05
8,GGCAGAGCUCAACACAGCGUGGCAAAGUGGGUGUGGCUAUACUGCC [C31G G40U],0.03
9,GGCAGAGCUCAACACAGCGUGGCAAAGUGGGUGUGGCUAAACUGCC [C31G G40A],0.05
10,GGCAGAGCUCAACACAGCGUGGCAAAGUGGAUGUGGCUAGACCGCC [C31A U43C],0.05
11,GGCAGAGCUCAACACAGCGUGGCAAAGUGGAUGUGGCUAGACGGCC [C31A U43G],0.15
12,GGCAGAGCUCAACACAGCGUGGCAAAGUGGAUGUGGCUAGACAGCC [C31A U43A],0.08
13,GGCAGAGCUCAACACAGCGUGGCAAAGUGGAUGUGGCUAGACUACC [C31A G44A],0.06
14,GGCAGAGCUCAACACAGCGUGGCAAAGUGGAUGUGGCUAGACUUCC [C31A G44U],0.04
15,GGCAGAGCUCAACACAGCGUGGCAAAGUGGAUGUGGCUAGACUCCC [C31A G44C],0.04
16,GGCAGAGCUCAACACAGCGUGGCAAAGUGGUUGUGGCUAGAGUGCC [C31U C42G],0.04
17,GGCAGAGCUCAACACAGCGUGGCAAAGUGGUUGUGGCUAGAAUGCC [C31U C42A],0.09
18,GGCAGAGCUCAACACAGCGUGGCAAAGUGGUUGUGGCUAGAUUGCC [C31U C42U],0.09
